# Test results as given in publication PMC9482650, “Quantitative fragmentomics allow affinity mapping of interactomes” (Nature Communications, 2022).
# T1: HTRA4, P83105
# T1 sequence (P83105 378-476, limits assumed, looked up): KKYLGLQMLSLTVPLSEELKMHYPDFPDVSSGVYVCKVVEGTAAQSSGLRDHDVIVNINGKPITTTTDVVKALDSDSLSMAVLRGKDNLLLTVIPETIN
# T2: MPDZ_12, O75970
# T2 sequence (O75970 1857-1958, limits assumed, looked up): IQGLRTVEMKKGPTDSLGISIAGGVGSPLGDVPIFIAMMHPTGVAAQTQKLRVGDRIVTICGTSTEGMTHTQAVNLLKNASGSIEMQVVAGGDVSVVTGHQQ
# T3: NHERF3_4, Q5T2W1
# T3 sequence (Q5T2W1 373-468, limits assumed, looked up): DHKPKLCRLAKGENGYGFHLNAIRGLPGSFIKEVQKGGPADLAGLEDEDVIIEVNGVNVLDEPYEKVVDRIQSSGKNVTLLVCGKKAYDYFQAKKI
# T4: LNX2_3, Q8N448
# T4 sequence (Q8N448 463-564, limits assumed, looked up): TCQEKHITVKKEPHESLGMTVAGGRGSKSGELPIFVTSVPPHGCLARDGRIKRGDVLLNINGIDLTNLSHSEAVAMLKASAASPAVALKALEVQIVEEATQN
# T5: APBA1_2, Q02410
# T5 sequence (Q02410 742-832, limits assumed, looked up): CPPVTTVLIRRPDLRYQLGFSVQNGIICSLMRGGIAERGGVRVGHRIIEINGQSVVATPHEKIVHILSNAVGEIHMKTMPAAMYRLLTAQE
# T6: MPDZ_10, O75970
# T6 sequence (O75970 1624-1722, limits assumed, looked up): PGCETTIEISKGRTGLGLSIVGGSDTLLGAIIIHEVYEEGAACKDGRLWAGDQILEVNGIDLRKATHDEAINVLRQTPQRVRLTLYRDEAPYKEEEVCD
# T7: APBA3_1, O96018
# T7 sequence (O96018 389-490, limits assumed, looked up): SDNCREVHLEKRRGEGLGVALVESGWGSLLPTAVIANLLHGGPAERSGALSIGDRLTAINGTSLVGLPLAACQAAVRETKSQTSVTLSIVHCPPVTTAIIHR
# T8: RADIL, Q96JH8
# T8 sequence (Q96JH8 971-1071, limits assumed, looked up): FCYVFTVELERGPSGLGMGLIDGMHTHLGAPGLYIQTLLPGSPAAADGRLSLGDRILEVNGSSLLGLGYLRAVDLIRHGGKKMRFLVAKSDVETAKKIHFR
# T9: RHPN1, Q8TCX5
# T9 sequence (Q8TCX5 508-602, limits assumed, looked up): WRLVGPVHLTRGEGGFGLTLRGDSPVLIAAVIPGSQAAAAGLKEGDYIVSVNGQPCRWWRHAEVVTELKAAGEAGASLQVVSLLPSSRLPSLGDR
# T10: LIN7C, Q9NUP9
# T10 sequence (Q9NUP9 88-185, limits assumed, looked up): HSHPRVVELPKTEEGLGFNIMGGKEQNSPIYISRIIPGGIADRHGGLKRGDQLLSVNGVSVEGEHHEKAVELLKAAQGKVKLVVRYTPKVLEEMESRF
# T11: SNTA1, Q13424
# T11 sequence (Q13424 82-180, limits assumed, looked up): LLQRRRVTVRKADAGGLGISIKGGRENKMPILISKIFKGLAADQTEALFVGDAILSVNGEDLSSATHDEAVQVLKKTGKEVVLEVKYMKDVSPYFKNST
# How the values were obtained:
# Assay in all cases: holdup assay
# Design in all cases: key: below the threshold = too weak to quantify, mostly under pKd 3.1 to 4
# Settings in all cases: plain residues with an end cap or a label only (N-terminal biotin on a linker: ttds)
# HTRA4, P83105 = molecular target: T1, HTRA4, P83105
# MPDZ_12, O75970 = molecular target: T2, MPDZ_12, O75970
# NHERF3_4, Q5T2W1 = molecular target: T3, NHERF3_4, Q5T2W1
# NHERF4_1, Q86UT5-2 = molecular target: NHERF4_1, Q86UT5-2
# Chain of NHERF4_1, Q86UT5-2 (Q86UT5 other isoform, or with tags, fused parts or gaps): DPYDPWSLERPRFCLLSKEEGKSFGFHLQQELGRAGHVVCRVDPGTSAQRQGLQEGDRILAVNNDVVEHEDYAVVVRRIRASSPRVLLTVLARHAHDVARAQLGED
# LNX2_3, Q8N448 = molecular target: T4, LNX2_3, Q8N448
# MAGI2_3, Q86UL8 = molecular target: MAGI2_3, Q86UL8
# Chain of MAGI2_3, Q86UL8 (Q86UL8 600-682): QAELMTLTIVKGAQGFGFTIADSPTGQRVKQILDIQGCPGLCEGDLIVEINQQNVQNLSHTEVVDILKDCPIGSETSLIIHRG
# Inadl_8, Q8NI35 = molecular target: Inadl_8, Q8NI35
# Chain of Inadl_8, Q8NI35 (Q8NI35 1425-1530): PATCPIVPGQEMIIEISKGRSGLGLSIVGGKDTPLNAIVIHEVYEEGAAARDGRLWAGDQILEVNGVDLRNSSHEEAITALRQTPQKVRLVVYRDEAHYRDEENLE
# MAST2, Q6P0Q8 = molecular target: MAST2, Q6P0Q8
# Chain of MAST2, Q6P0Q8 (Q6P0Q8 1099-1202): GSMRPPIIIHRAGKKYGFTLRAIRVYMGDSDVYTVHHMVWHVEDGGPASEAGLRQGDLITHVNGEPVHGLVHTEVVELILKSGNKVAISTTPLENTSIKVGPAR
# GRASP, Q7Z6J2 = molecular target: GRASP, Q7Z6J2
# Chain of GRASP, Q7Z6J2 (Q7Z6J2 96-193): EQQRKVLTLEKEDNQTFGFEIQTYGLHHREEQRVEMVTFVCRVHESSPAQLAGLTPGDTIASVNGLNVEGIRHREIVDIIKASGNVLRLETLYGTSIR
# APBA1_2, Q02410 = molecular target: T5, APBA1_2, Q02410
# MAGI2_6, Q86UL8 = molecular target: MAGI2_6, Q86UL8
# Chain of MAGI2_6, Q86UL8 (Q86UL8 1141-1229): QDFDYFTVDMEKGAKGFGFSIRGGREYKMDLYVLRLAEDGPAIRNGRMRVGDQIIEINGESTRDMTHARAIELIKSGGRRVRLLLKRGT
# MPDZ_10, O75970 = molecular target: T6, MPDZ_10, O75970
# GIPC2, Q8TF65 = molecular target: GIPC2, Q8TF65
# Chain of GIPC2, Q8TF65 (Q8TF65 112-203): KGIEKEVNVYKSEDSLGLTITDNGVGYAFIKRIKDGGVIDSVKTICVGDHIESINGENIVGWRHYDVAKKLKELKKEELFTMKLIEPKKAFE
# FRMPD2_1, Q68DX3 = molecular target: FRMPD2_1, Q68DX3
# Chain of FRMPD2_1, Q68DX3 (Q68DX3 770-861): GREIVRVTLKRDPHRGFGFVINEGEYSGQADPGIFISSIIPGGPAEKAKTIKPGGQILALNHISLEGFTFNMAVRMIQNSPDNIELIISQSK
# DLG4_3, P78352 = molecular target: DLG4_3, P78352
# Chain of DLG4_3, P78352 (P78352 306-403): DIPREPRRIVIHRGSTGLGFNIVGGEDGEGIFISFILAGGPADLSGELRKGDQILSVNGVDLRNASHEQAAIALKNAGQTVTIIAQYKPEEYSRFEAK
# AHNAK1, Q09666 = molecular target: AHNAK1, Q09666
# Chain of AHNAK1, Q09666 (Q09666 4-100): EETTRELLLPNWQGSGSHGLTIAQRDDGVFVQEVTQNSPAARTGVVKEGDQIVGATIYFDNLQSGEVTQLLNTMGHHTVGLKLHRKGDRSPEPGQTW
# APBA3_1, O96018 = molecular target: T7, APBA3_1, O96018
# GORASP2, Q9H8Y8 = molecular target: GORASP2, Q9H8Y8
# PTPN3, P26045 = molecular target: PTPN3, P26045
# Chain of PTPN3, P26045 (P26045 505-587): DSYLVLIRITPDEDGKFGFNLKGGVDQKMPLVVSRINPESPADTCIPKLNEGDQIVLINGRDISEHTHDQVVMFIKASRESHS
# NOS1, P29475 = molecular target: NOS1, P29475
# Chain of NOS1, P29475 (P29475 9-101): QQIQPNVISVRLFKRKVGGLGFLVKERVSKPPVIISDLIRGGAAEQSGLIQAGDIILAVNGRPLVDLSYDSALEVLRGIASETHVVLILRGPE
# DLG1_2, Q12959 = molecular target: DLG1_2, Q12959
# Chain of DLG1_2, Q12959 (Q12959 314-412): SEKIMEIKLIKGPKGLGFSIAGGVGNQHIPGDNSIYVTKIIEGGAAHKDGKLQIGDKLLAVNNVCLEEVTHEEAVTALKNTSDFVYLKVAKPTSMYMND
# RADIL, Q96JH8 = molecular target: T8, RADIL, Q96JH8
# RHPN1, Q8TCX5 = molecular target: T9, RHPN1, Q8TCX5
# LIN7C, Q9NUP9 = molecular target: T10, LIN7C, Q9NUP9
# SNTA1, Q13424 = molecular target: T11, SNTA1, Q13424
# SCRIB_3, Q14160 = molecular target: SCRIB_3, Q14160
# Chain of SCRIB_3, Q14160 (Q14160 999-1103): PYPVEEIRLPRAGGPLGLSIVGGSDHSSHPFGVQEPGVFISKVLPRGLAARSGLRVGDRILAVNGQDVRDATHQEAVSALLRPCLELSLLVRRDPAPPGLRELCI
# Inadl_9, Q8NI35 = molecular target: Inadl_9, Q8NI35
# Chain of Inadl_9, Q8NI35 (Q8NI35 1530-1615): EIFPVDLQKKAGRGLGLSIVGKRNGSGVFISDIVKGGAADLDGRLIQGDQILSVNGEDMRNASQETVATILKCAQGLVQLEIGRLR
binder,measurement,setting,value
"STLTIFETAL [ABCC4, O15439]",pKd,"HTRA4, P83105",below the threshold
same,pKd,"MPDZ_12, O75970",below the threshold
same,pKd,"NHERF3_4, Q5T2W1",4.78
same,pKd,"NHERF4_1, Q86UT5-2",4.61
same,pKd,"LNX2_3, Q8N448",below the threshold
same,pKd,"MAGI2_3, Q86UL8",below the threshold
same,pKd,"Inadl_8, Q8NI35",below the threshold
same,pKd,"MAST2, Q6P0Q8",5.92
same,pKd,"GRASP, Q7Z6J2",4.74
same,pKd,"APBA1_2, Q02410",4.03
same,pKd,"MAGI2_6, Q86UL8",4.53
same,pKd,"MPDZ_10, O75970",below the threshold
same,pKd,"GIPC2, Q8TF65",below the threshold
same,pKd,"FRMPD2_1, Q68DX3",3.84
same,pKd,"DLG4_3, P78352",3.85
same,pKd,"AHNAK1, Q09666",below the threshold
same,pKd,"APBA3_1, O96018",below the threshold
same,pKd,"GORASP2, Q9H8Y8",3.82
same,pKd,"PTPN3, P26045",5.11
same,pKd,"NOS1, P29475",4.04
same,pKd,"DLG1_2, Q12959",4.57
same,pKd,"RADIL, Q96JH8",3.56
same,pKd,"RHPN1, Q8TCX5",4.87
same,pKd,"LIN7C, Q9NUP9",4.68
same,pKd,"SNTA1, Q13424",4.75
same,pKd,"SCRIB_3, Q14160",5.59
same,pKd,"Inadl_9, Q8NI35",below the threshold
